# Data from US20210371516A1.
# Molecular target: antigen on NCI-H187 classic small cell lung carcinoma cells (ATCC Number: CRL-5804) recognised by PTA-2358
# Experiment: competition flow cytometry on NCI-H187 cells against mouse PTA-2358; NS0-derived
row,Binder,Relative IC50 (fold of chimeric PTA-2358)
1,"PTA-2358 VH1/VK1 IgG1 antibody (antibody, V domains shown) VH: EVQLVQSGAELKKPGASVKLSCTASGFNIKDYYMHWVKQAPGQGLEWIGWIDPGNGDTECAPKFQGRATLTADTSINTAYLELSRLRSDDTAVYYCNAPYYSGSSHFDYWGQGTTVTVSS VL: DIVLTQSPDSLAVSLGERATINCRASKSVSASGYSFLHWYQQKPGQPPKLLIYLASNLESGVPDRFSGSGSGTDFTLTISSLQEEDVATYYCQHSRELRTFGQGTKLEIK",1.11
2,"PTA-2358 VH3/VK1 IgG1 antibody (antibody, V domains shown) VH: EVQLVQSGAEVKKPGASVKLSCTASGFNIKDYYMHWVRQAPGQGLEWIGWIDPGNGDTECAPKFQGRATLTADTSINTAYLELSRLRSDDTAVYYCNAPYYSGSSHFDYWGQGTTVTVSS VL: DIVLTQSPDSLAVSLGERATINCRASKSVSASGYSFLHWYQQKPGQPPKLLIYLASNLESGVPDRFSGSGSGTDFTLTISSLQEEDVATYYCQHSRELRTFGQGTKLEIK",1.12
3,"PTA-2358 VH2/VK1 IgG1 antibody (antibody, V domains shown) VH: EVQLVQSGAEVKKPGASVKLSCTASGFNIKDYYMHWVKQAPGQGLEWIGWIDPGNGDTECAPKFQGRATLTADTSINTAYLELSRLRSDDTAVYYCNAPYYSGSSHFDYWGQGTTVTVSS VL: DIVLTQSPDSLAVSLGERATINCRASKSVSASGYSFLHWYQQKPGQPPKLLIYLASNLESGVPDRFSGSGSGTDFTLTISSLQEEDVATYYCQHSRELRTFGQGTKLEIK",1.03

# Molecular target: antigen on NCI-H187 classic small cell lung carcinoma cells (ATCC Number: CRL-5804) recognised by PTA-2357
# Experiment: competition flow cytometry on NCI-H187 cells against mouse PTA-2357; CHO-K1-derived
row,Binder,Relative IC50 (fold of chimeric PTA-2357)
1,"PTA-2357 VH5/VK2 IgG1 antibody (antibody, V domains shown) VH: QVQLVQSGAEVKKPGASVKVSCKGSGYPFTDYTIHWVRQAPGQGLEWIGHISTYSGNTNNNQKFKGRVTMTVDKSTSTAYMELRSLRSDDTAVYYCARGDYYGSFYKFEYWGQGTTVTVSS VL: DIKMTQSPSSLSASVGDRVTITCGASENIYGALNWFQRKPGKAPKLLIYGATNLADGMPSRFSGSGSGRDFTLTISSLQPEDFATYFCQNVLSIPYTFGQGTKLEIK",2.43
2,"PTA-2357 VH5/VK3 IgG1 antibody (antibody, V domains shown) VH: QVQLVQSGAEVKKPGASVKVSCKGSGYPFTDYTIHWVRQAPGQGLEWIGHISTYSGNTNNNQKFKGRVTMTVDKSTSTAYMELRSLRSDDTAVYYCARGDYYGSFYKFEYWGQGTTVTVSS VL: DIQMTQSPSSLSASVGDRVTITCGASENIYGALNWFQRKPGKAPKLLIYGATNLADGMPSRFSGSGSGRDFTLTISSLQPEDFATYFCQNVLSIPYTFGQGTKLEIK",> 3
3,"PTA-2357 VH3/VK1 IgG1 antibody (antibody, V domains shown) VH: QVQLVQSGAEVKKPGASVKVSCKGSGYPFTDYTIHWVRQAPGQGLEWIGHISTYSGNTNNNQKFKGRATMTVDKSTSTAYMELRSLRSDDTTVYYCARGDYYGSFYKFEYWGQGTTVTVSS VL: DIKMTQSPSSLSASVGDRVTITCGASENIYGALNWFQRKQGKAPKLLIYGATNLADGMPSRFSGSGSGRDFTLTISSLQPEDFATYFCQNVLSIPYTFGQGTQLEIK",> 3
4,"PTA-2357 VH5/VK1 IgG1 antibody (antibody, V domains shown) VH: QVQLVQSGAEVKKPGASVKVSCKGSGYPFTDYTIHWVRQAPGQGLEWIGHISTYSGNTNNNQKFKGRVTMTVDKSTSTAYMELRSLRSDDTAVYYCARGDYYGSFYKFEYWGQGTTVTVSS VL: DIKMTQSPSSLSASVGDRVTITCGASENIYGALNWFQRKQGKAPKLLIYGATNLADGMPSRFSGSGSGRDFTLTISSLQPEDFATYFCQNVLSIPYTFGQGTQLEIK",> 3
5,"PTA-2357 VH1/VK3 IgG1 antibody (antibody, V domains shown) VH: QVQLVQSGPELKKPGASVKVSCKGSGYPFTDYTIHWVRQAHGQGLEWIGHISTYSGNTNNNQKFKGRATMTVDKSTSTAYMELRSLRSDDSTVYYCARGDYYGSFYKFEYWGQGTTVTVSS VL: DIQMTQSPSSLSASVGDRVTITCGASENIYGALNWFQRKPGKAPKLLIYGATNLADGMPSRFSGSGSGRDFTLTISSLQPEDFATYFCQNVLSIPYTFGQGTKLEIK",2
6,"PTA-2357 VH4/VK3 IgG1 antibody (antibody, V domains shown) VH: QVQLVQSGAEVKKPGASVKVSCKGSGYPFTDYTIHWVRQAPGQGLEWIGHISTYSGNTNNNQKFKGRATMTVDKSTSTAYMELRSLRSDDTAVYYCARGDYYGSFYKFEYWGQGTTVTVSS VL: DIQMTQSPSSLSASVGDRVTITCGASENIYGALNWFQRKPGKAPKLLIYGATNLADGMPSRFSGSGSGRDFTLTISSLQPEDFATYFCQNVLSIPYTFGQGTKLEIK",2.06
7,"PTA-2357 VH1/VK1 IgG1 antibody (antibody, V domains shown) VH: QVQLVQSGPELKKPGASVKVSCKGSGYPFTDYTIHWVRQAHGQGLEWIGHISTYSGNTNNNQKFKGRATMTVDKSTSTAYMELRSLRSDDSTVYYCARGDYYGSFYKFEYWGQGTTVTVSS VL: DIKMTQSPSSLSASVGDRVTITCGASENIYGALNWFQRKQGKAPKLLIYGATNLADGMPSRFSGSGSGRDFTLTISSLQPEDFATYFCQNVLSIPYTFGQGTQLEIK",> 3
8,"PTA-2357 VH2/VK1 IgG1 antibody (antibody, V domains shown) VH: QVQLVQSGAEVKKPGASVKVSCKGSGYPFTDYTIHWVRQAHGQGLEWIGHISTYSGNTNNNQKFKGRATMTVDKSTSTAYMELRSLRSDDSTVYYCARGDYYGSFYKFEYWGQGTTVTVSS VL: DIKMTQSPSSLSASVGDRVTITCGASENIYGALNWFQRKQGKAPKLLIYGATNLADGMPSRFSGSGSGRDFTLTISSLQPEDFATYFCQNVLSIPYTFGQGTQLEIK",> 3
9,"PTA-2357 VH3/VK3 IgG1 antibody (antibody, V domains shown) VH: QVQLVQSGAEVKKPGASVKVSCKGSGYPFTDYTIHWVRQAPGQGLEWIGHISTYSGNTNNNQKFKGRATMTVDKSTSTAYMELRSLRSDDTTVYYCARGDYYGSFYKFEYWGQGTTVTVSS VL: DIQMTQSPSSLSASVGDRVTITCGASENIYGALNWFQRKPGKAPKLLIYGATNLADGMPSRFSGSGSGRDFTLTISSLQPEDFATYFCQNVLSIPYTFGQGTKLEIK",1.64
10,"PTA-2357 VH4/VK1 IgG1 antibody (antibody, V domains shown) VH: QVQLVQSGAEVKKPGASVKVSCKGSGYPFTDYTIHWVRQAPGQGLEWIGHISTYSGNTNNNQKFKGRATMTVDKSTSTAYMELRSLRSDDTAVYYCARGDYYGSFYKFEYWGQGTTVTVSS VL: DIKMTQSPSSLSASVGDRVTITCGASENIYGALNWFQRKQGKAPKLLIYGATNLADGMPSRFSGSGSGRDFTLTISSLQPEDFATYFCQNVLSIPYTFGQGTQLEIK",> 3

# Molecular target: antigen on NCI-H187 classic small cell lung carcinoma cells (ATCC Number: CRL-5804) recognised by PTA-2358
# Experiment: competition flow cytometry on NCI-H187 cells against mouse PTA-2358; CHO-K1-derived
row,Binder,Relative IC50 (fold of chimeric PTA-2358)
1,"PTA-2358 VH1/VK1 IgG1 antibody (antibody, V domains shown) VH: EVQLVQSGAELKKPGASVKLSCTASGFNIKDYYMHWVKQAPGQGLEWIGWIDPGNGDTECAPKFQGRATLTADTSINTAYLELSRLRSDDTAVYYCNAPYYSGSSHFDYWGQGTTVTVSS VL: DIVLTQSPDSLAVSLGERATINCRASKSVSASGYSFLHWYQQKPGQPPKLLIYLASNLESGVPDRFSGSGSGTDFTLTISSLQEEDVATYYCQHSRELRTFGQGTKLEIK",1.09
2,"PTA-2358 VH5/VK3 IgG1 antibody (antibody, V domains shown) VH: EVQLVQSGAEVKKPGASVKVSCTASGFNIKDYYMHWVRQAPGQGLEWIGWIDPGNGDTECAPKFQGRATITADTSISTAYMELSRLRSDDTAVYYCNAPYYSGSSHFDYWGQGTTVTVSS VL: DIVMTQSPDSLAVSLGERATINCRASKSVSASGYSFLHWYQQKPGQPPKLLIYLASNLESGVPDRFSGSGSGTDFTLTISSLQAEDVAVYYCQHSRELRTFGQGTKLEIK",> 3
3,"PTA-2358 VH3/VK3 IgG1 antibody (antibody, V domains shown) VH: EVQLVQSGAEVKKPGASVKLSCTASGFNIKDYYMHWVRQAPGQGLEWIGWIDPGNGDTECAPKFQGRATLTADTSINTAYLELSRLRSDDTAVYYCNAPYYSGSSHFDYWGQGTTVTVSS VL: DIVMTQSPDSLAVSLGERATINCRASKSVSASGYSFLHWYQQKPGQPPKLLIYLASNLESGVPDRFSGSGSGTDFTLTISSLQAEDVAVYYCQHSRELRTFGQGTKLEIK",2.43
4,"PTA-2358 VH3/VK2 IgG1 antibody (antibody, V domains shown) VH: EVQLVQSGAEVKKPGASVKLSCTASGFNIKDYYMHWVRQAPGQGLEWIGWIDPGNGDTECAPKFQGRATLTADTSINTAYLELSRLRSDDTAVYYCNAPYYSGSSHFDYWGQGTTVTVSS VL: DIVLTQSPDSLAVSLGERATINCRASKSVSASGYSFLHWYQQKPGQPPKLLIYLASNLESGVPDRFSGSGSGTDFTLTISSLQAEDVATYYCQHSRELRTFGQGTKLEIK",1.81
5,"PTA-2358 VH3/VK1 IgG1 antibody (antibody, V domains shown) VH: EVQLVQSGAEVKKPGASVKLSCTASGFNIKDYYMHWVRQAPGQGLEWIGWIDPGNGDTECAPKFQGRATLTADTSINTAYLELSRLRSDDTAVYYCNAPYYSGSSHFDYWGQGTTVTVSS VL: DIVLTQSPDSLAVSLGERATINCRASKSVSASGYSFLHWYQQKPGQPPKLLIYLASNLESGVPDRFSGSGSGTDFTLTISSLQEEDVATYYCQHSRELRTFGQGTKLEIK",1.09
6,"PTA-2358 VH2/VK1 IgG1 antibody (antibody, V domains shown) VH: EVQLVQSGAEVKKPGASVKLSCTASGFNIKDYYMHWVKQAPGQGLEWIGWIDPGNGDTECAPKFQGRATLTADTSINTAYLELSRLRSDDTAVYYCNAPYYSGSSHFDYWGQGTTVTVSS VL: DIVLTQSPDSLAVSLGERATINCRASKSVSASGYSFLHWYQQKPGQPPKLLIYLASNLESGVPDRFSGSGSGTDFTLTISSLQEEDVATYYCQHSRELRTFGQGTKLEIK",1.28
7,"PTA-2358 VH1/VK2 IgG1 antibody (antibody, V domains shown) VH: EVQLVQSGAELKKPGASVKLSCTASGFNIKDYYMHWVKQAPGQGLEWIGWIDPGNGDTECAPKFQGRATLTADTSINTAYLELSRLRSDDTAVYYCNAPYYSGSSHFDYWGQGTTVTVSS VL: DIVLTQSPDSLAVSLGERATINCRASKSVSASGYSFLHWYQQKPGQPPKLLIYLASNLESGVPDRFSGSGSGTDFTLTISSLQAEDVATYYCQHSRELRTFGQGTKLEIK",2.38
8,"PTA-2358 VH2/VK3 IgG1 antibody (antibody, V domains shown) VH: EVQLVQSGAEVKKPGASVKLSCTASGFNIKDYYMHWVKQAPGQGLEWIGWIDPGNGDTECAPKFQGRATLTADTSINTAYLELSRLRSDDTAVYYCNAPYYSGSSHFDYWGQGTTVTVSS VL: DIVMTQSPDSLAVSLGERATINCRASKSVSASGYSFLHWYQQKPGQPPKLLIYLASNLESGVPDRFSGSGSGTDFTLTISSLQAEDVAVYYCQHSRELRTFGQGTKLEIK",> 3
9,"PTA-2358 VH1/VK3 IgG1 antibody (antibody, V domains shown) VH: EVQLVQSGAELKKPGASVKLSCTASGFNIKDYYMHWVKQAPGQGLEWIGWIDPGNGDTECAPKFQGRATLTADTSINTAYLELSRLRSDDTAVYYCNAPYYSGSSHFDYWGQGTTVTVSS VL: DIVMTQSPDSLAVSLGERATINCRASKSVSASGYSFLHWYQQKPGQPPKLLIYLASNLESGVPDRFSGSGSGTDFTLTISSLQAEDVAVYYCQHSRELRTFGQGTKLEIK",2.68
10,"PTA-2358 VH4/VK3 IgG1 antibody (antibody, V domains shown) VH: EVQLVQSGAEVKKPGASVKLSCTASGFNIKDYYMHWVRQAPGQGLEWIGWIDPGNGDTECAPKFQGRATLTADTSISTAYLELSRLRSDDTAVYYCNAPYYSGSSHFDYWGQGTTVTVSS VL: DIVMTQSPDSLAVSLGERATINCRASKSVSASGYSFLHWYQQKPGQPPKLLIYLASNLESGVPDRFSGSGSGTDFTLTISSLQAEDVAVYYCQHSRELRTFGQGTKLEIK",> 3
